# Measurements reported in IntAct's records for PubMed 29040270.
# B1: Rho-related GTP-binding protein RhoE (Homo sapiens), P61587 (parent)
# chain: MKERRASQKLSSKSIMDPNQNVKCKIVVVGDSQCGKTALLHVFAKDCFPENYVPTVFENYTASFEIDTQRIELSLWDTSGSPYYDNVRPLSYPDSDAVLICFDISRPETLDSVLKKWKGEIQEFCPNTKMLLVGCKSDLRTDVSTLVELSNHRQTPVSYDQGANMAKQIGAATYIECSALQSENSVRDIFHVATLACVNKTNKNVKRNKSQRATKRISHMPSRPELSAVATDLRKDKAKSCTVM
# Key:
# [1] = variants of: B1; conditions: with plxb1_human PLXNB1, O43157
# [2] = variants of: B1; conditions: with plxb2_human PLXNB2, O15031
# plxb2_human PLXNB2, O15031, sequence (O15031 whole entry): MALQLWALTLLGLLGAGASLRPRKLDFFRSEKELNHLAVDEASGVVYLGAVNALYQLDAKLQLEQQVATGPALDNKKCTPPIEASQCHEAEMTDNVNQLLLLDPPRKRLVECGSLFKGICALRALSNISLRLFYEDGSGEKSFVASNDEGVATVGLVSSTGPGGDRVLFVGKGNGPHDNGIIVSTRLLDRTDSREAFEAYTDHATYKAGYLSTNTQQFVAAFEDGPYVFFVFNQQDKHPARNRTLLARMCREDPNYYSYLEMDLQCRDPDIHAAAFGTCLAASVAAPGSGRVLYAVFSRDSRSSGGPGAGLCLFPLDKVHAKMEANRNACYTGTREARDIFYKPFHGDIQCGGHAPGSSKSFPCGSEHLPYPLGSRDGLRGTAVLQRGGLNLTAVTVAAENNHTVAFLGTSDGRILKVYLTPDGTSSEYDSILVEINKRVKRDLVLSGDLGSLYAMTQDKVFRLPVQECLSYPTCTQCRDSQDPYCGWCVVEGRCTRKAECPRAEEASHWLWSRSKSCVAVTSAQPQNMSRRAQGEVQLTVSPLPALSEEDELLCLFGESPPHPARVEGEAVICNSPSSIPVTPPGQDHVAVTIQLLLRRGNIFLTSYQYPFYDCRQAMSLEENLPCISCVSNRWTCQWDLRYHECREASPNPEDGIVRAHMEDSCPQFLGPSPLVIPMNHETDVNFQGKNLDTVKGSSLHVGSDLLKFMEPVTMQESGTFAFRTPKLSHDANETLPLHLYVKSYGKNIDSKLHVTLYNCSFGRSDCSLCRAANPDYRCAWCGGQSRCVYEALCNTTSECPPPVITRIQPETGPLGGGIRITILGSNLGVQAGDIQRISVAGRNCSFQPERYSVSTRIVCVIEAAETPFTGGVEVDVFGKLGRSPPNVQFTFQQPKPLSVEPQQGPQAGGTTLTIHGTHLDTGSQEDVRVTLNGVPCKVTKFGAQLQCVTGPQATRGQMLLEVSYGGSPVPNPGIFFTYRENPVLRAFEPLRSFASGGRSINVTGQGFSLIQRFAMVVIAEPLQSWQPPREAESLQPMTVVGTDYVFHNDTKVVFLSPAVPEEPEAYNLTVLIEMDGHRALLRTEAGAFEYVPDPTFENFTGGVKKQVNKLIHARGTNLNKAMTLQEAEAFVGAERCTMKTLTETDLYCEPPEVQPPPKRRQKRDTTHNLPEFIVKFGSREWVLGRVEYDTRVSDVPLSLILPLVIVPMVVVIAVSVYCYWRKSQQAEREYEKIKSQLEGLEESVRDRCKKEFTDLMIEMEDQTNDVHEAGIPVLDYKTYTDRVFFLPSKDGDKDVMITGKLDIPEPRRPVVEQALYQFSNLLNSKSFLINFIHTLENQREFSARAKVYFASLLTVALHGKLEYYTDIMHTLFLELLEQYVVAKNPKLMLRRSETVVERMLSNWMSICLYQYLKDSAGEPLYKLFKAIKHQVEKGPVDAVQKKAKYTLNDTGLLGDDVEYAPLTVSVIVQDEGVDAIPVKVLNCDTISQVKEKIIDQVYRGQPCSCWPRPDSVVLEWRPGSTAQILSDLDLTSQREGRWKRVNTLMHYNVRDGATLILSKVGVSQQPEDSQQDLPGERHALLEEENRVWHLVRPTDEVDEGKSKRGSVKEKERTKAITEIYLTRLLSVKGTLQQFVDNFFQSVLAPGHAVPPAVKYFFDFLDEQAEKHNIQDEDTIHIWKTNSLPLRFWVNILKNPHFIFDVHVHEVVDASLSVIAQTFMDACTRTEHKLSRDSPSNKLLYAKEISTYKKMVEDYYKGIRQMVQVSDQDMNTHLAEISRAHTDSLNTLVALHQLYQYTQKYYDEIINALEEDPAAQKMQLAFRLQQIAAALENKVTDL
# plxb1_human PLXNB1, O43157, sequence (O43157 whole entry): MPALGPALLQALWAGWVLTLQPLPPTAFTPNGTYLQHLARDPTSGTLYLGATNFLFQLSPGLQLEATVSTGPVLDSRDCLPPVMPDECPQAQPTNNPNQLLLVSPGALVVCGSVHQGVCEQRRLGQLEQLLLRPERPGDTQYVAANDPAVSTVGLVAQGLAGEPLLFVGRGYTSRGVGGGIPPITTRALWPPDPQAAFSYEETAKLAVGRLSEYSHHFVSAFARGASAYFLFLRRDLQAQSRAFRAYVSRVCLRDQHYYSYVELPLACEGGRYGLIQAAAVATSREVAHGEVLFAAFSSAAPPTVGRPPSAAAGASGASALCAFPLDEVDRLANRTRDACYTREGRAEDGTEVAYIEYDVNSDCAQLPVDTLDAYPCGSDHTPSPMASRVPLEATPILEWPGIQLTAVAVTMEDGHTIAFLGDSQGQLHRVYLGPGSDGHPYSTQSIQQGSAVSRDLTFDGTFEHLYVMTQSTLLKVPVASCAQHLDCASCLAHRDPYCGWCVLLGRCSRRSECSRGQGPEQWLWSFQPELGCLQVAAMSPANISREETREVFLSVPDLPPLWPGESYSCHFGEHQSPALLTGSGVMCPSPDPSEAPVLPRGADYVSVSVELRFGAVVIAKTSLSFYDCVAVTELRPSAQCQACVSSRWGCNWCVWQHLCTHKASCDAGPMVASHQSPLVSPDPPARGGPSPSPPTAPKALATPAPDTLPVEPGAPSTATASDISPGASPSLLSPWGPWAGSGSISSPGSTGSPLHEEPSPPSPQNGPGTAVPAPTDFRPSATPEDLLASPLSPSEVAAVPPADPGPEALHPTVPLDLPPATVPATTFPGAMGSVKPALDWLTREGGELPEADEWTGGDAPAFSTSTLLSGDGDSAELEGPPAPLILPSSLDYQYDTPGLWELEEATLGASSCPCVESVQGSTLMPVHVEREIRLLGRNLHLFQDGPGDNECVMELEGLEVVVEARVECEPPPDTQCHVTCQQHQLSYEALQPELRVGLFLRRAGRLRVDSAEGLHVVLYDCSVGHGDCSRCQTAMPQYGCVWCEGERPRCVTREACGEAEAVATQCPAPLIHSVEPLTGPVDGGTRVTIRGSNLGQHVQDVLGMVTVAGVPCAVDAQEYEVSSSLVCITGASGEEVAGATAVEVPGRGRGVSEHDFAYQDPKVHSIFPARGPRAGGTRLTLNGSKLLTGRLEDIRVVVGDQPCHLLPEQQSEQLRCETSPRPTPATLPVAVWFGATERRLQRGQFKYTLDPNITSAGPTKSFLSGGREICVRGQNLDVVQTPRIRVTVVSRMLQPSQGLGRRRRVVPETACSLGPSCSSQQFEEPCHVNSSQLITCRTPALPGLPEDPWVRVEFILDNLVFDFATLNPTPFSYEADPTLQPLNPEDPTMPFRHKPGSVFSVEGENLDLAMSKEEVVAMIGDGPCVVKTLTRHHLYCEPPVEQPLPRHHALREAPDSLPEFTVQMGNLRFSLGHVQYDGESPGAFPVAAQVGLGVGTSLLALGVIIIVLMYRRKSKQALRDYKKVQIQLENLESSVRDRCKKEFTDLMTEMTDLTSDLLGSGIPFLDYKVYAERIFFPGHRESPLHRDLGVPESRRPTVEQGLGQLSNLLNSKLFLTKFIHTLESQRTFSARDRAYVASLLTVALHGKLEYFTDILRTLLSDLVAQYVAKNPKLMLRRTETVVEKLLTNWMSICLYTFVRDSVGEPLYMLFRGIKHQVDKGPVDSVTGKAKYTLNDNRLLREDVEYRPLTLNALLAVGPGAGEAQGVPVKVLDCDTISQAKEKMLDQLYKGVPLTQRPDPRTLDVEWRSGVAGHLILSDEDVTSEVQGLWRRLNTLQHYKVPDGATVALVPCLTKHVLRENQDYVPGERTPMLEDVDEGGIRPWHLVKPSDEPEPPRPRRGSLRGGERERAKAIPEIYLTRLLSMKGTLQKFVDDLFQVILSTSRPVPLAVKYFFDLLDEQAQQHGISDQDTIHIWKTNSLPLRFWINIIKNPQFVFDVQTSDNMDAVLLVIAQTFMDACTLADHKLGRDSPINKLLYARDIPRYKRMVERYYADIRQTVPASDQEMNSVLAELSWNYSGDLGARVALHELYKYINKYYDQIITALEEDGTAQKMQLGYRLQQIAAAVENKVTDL
effect of a mutation on the interaction [1],effect of a mutation on the interaction [2],Variant
disrupting interaction strength,disrupting interaction strength,L90R
with no effect,with no effect,F124Y

# The next lines start with the variant.
Variant,effect of a mutation on the interaction [1],effect of a mutation on the interaction [2]
Y60A,with no effect,with no effect
N86R,with no effect,with no effect
V87R,disrupting interaction strength,disrupting interaction strength
